Assays:
Assay in all cases: cell-based or functional assay
[1] = target: DENV-2 envelope (E) protein (Dengue virus serotype 2, UniProt P29990 281-679)
[2] = target: T1, DENV-3 envelope (E) protein (Dengue virus serotype 3, UniProt Q5UB51 281-678)
T1 chain: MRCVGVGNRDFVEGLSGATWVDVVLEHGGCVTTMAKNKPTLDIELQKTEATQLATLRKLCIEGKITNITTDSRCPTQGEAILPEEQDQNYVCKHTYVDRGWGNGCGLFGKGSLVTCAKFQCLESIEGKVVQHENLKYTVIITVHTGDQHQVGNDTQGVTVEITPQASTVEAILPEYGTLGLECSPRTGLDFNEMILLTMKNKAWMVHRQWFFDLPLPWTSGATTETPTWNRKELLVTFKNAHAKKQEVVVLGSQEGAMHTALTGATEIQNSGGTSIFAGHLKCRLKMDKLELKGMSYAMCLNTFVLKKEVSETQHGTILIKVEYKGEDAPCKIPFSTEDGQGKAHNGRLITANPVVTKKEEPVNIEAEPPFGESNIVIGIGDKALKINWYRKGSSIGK

[3] = target: T2, DENV-1 envelope (E) protein (Dengue virus serotype 1, UniProt P27909 281-680)
T2 chain: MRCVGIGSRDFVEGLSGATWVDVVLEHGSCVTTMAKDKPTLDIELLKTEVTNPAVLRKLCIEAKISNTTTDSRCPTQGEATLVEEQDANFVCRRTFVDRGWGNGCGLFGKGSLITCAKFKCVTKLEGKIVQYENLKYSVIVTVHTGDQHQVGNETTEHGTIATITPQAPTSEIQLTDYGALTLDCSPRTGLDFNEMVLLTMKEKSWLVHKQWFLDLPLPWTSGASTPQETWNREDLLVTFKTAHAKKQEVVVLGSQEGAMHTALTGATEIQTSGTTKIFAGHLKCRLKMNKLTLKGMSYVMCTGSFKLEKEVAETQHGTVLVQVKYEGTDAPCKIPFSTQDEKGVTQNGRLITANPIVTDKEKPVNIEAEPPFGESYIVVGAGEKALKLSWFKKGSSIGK

[4] = target: DENV-4 envelope (E) protein (Dengue virus serotype 4, UniProt Q58HT7 280-679)
JEV envelope (E) protein = target: T3, JEV envelope (E) protein (Japanese encephalitis virus, UniProt P0DOH8 295-699)
T3 chain: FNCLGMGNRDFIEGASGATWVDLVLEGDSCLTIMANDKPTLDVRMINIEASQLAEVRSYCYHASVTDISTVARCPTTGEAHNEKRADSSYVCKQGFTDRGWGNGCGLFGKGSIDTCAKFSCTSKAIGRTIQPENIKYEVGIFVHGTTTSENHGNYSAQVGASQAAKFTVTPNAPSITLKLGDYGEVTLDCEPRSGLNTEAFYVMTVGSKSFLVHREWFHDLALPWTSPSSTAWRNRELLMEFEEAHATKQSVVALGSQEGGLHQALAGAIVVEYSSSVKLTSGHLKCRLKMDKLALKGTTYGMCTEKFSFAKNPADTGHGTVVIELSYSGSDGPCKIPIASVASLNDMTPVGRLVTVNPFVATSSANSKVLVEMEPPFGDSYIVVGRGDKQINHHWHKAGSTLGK

B1: K8b-IgG1 (antibody, V domains shown)
VH: QVQLVQPGAEVVKPGASVKLSCKTSGYTFTSNWMHWVKQAPGQGLEWIGEIDPSDSYTNYNQNFQGKAKLTVDKSTSTAYMEVSSLRSDDTAVYYCARGSNPYYYAMDYWGQGTSVTVSS
VL: EIVMMQSPLTLSLSPGERATLSCRASQSVSSNYLAWYQQRPGQAPRLLIYGVSSRATGVPVRFSGSGSGTDFTLTISRLEPEDFAVYYCQHYGGSLSWTFGQGTKVEIK
neutralization (FRµNT50) [1]: 0.207 µg/mL

B2: K8b-F(ab) (Fab, V domains shown)
VH: QVQLVQPGAEVVKPGASVKLSCKTSGYTFTSNWMHWVKQAPGQGLEWIGEIDPSDSYTNYNQNFQGKAKLTVDKSTSTAYMEVSSLRSDDTAVYYCARGSNPYYYAMDYWGQGTSVTVSS
VL: EIVMMQSPLTLSLSPGERATLSCRASQSVSSNYLAWYQQRPGQAPRLLIYGVSSRATGVPVRFSGSGSGTDFTLTISRLEPEDFAVYYCQHYGGSLSWTFGQGTKVEIKR
neutralization (FRµNT50) [1]: 37 nM

B3: K5-IgG1 (antibody, V domains shown)
VH: EVQLLESGAEVKKPGSSVKVSCQASGDTFSNSDINWVRQAPGQGLEWMGGIIPAYDTTNYARTFQGRVAITADKSTSTVYMELSRLRSEDTAVYYCATDQRDYFGLGNHFNAQHFWGQGTLVTVSS
VL: AIRMTQTPLSLSASVGDRVTITCRASQSISNYLNWYQQRPGKAPNLLIYTASNLHSGVPSRFSGSGSGTDFTLTISSLQPEDFATYYCQQSYSGGYTFGQGPSWEIK
neutralization (FRµNT50) [2]: 1.21 µg/mL
neutralization (FRµNT50) [3]: 0.771 µg/mL
neutralization (FRµNT50) [4]: 1.51 µg/mL
neutralization (FRµNT50) [1]: 0.215 µg/mL
neutralization (FRµNT50) (JEV envelope (E) protein): 0.682 µg/mL

Source: US20240352097A1 (NATIONAL SUN YAT SEN UNIVERSITY, published 2024)
